Target: T1, LRP1 (low density lipoprotein receptor-related protein 1), endogenous in HEK293T cells (human, UniProt Q07954 20-4544)
T1 construct: Endogenous protein in HEK293T lysates (TAP-MS prey, co-IP); also called endogenous LRP1
Experiment: TAP-MS of SFB-tagged Notch pathway proteins in HEK293T cells
Procedure: We picked 12 clones of each bait for the follow-up experiments and confirmed the bait protein expression and localization using Western blotting and immunostaining, respectively. From which, we chose two clones of each bait with the correct subcellular localization and a moderate expression close to that of endogenous one as biological repeat for TAP-MS analysis. HEK293T cells stably expressing C-terminal SFB-fused Notch pathway proteins were selected via culture in medium containing 2 μg/ml puromycin. Protein expression was confirmed via immunostaining and Western blotting as described previously (Wang, W., Li, X., Huang, J., Feng, L., Dolinta, K. G., and Chen, J. (2014). Defining the protein-protein interaction network of the human hippo pathway. Mol Cell Proteomics 13, 119-131.).
For TAP experiments, the membrane-bound and soluble proteins of 2×10⁸ HEK293T cells were extracted using a membrane/soluble protein isolation kit (Beyotime, China) with protease inhibitors at 4° C. The insoluble pellets from the crude lysis step were briefly sonicated and incubated with TurboNuclease for 30 min at 37° C. with occasional vortexing to extract chromatin-bound protein complexes. The lysates were then centrifuged at 14,000 rpm for 30 min at 4° C., and the supernatant was collected as a chromatin fraction. […]

T1 sequence (Q07954 20-4544 limits assumed): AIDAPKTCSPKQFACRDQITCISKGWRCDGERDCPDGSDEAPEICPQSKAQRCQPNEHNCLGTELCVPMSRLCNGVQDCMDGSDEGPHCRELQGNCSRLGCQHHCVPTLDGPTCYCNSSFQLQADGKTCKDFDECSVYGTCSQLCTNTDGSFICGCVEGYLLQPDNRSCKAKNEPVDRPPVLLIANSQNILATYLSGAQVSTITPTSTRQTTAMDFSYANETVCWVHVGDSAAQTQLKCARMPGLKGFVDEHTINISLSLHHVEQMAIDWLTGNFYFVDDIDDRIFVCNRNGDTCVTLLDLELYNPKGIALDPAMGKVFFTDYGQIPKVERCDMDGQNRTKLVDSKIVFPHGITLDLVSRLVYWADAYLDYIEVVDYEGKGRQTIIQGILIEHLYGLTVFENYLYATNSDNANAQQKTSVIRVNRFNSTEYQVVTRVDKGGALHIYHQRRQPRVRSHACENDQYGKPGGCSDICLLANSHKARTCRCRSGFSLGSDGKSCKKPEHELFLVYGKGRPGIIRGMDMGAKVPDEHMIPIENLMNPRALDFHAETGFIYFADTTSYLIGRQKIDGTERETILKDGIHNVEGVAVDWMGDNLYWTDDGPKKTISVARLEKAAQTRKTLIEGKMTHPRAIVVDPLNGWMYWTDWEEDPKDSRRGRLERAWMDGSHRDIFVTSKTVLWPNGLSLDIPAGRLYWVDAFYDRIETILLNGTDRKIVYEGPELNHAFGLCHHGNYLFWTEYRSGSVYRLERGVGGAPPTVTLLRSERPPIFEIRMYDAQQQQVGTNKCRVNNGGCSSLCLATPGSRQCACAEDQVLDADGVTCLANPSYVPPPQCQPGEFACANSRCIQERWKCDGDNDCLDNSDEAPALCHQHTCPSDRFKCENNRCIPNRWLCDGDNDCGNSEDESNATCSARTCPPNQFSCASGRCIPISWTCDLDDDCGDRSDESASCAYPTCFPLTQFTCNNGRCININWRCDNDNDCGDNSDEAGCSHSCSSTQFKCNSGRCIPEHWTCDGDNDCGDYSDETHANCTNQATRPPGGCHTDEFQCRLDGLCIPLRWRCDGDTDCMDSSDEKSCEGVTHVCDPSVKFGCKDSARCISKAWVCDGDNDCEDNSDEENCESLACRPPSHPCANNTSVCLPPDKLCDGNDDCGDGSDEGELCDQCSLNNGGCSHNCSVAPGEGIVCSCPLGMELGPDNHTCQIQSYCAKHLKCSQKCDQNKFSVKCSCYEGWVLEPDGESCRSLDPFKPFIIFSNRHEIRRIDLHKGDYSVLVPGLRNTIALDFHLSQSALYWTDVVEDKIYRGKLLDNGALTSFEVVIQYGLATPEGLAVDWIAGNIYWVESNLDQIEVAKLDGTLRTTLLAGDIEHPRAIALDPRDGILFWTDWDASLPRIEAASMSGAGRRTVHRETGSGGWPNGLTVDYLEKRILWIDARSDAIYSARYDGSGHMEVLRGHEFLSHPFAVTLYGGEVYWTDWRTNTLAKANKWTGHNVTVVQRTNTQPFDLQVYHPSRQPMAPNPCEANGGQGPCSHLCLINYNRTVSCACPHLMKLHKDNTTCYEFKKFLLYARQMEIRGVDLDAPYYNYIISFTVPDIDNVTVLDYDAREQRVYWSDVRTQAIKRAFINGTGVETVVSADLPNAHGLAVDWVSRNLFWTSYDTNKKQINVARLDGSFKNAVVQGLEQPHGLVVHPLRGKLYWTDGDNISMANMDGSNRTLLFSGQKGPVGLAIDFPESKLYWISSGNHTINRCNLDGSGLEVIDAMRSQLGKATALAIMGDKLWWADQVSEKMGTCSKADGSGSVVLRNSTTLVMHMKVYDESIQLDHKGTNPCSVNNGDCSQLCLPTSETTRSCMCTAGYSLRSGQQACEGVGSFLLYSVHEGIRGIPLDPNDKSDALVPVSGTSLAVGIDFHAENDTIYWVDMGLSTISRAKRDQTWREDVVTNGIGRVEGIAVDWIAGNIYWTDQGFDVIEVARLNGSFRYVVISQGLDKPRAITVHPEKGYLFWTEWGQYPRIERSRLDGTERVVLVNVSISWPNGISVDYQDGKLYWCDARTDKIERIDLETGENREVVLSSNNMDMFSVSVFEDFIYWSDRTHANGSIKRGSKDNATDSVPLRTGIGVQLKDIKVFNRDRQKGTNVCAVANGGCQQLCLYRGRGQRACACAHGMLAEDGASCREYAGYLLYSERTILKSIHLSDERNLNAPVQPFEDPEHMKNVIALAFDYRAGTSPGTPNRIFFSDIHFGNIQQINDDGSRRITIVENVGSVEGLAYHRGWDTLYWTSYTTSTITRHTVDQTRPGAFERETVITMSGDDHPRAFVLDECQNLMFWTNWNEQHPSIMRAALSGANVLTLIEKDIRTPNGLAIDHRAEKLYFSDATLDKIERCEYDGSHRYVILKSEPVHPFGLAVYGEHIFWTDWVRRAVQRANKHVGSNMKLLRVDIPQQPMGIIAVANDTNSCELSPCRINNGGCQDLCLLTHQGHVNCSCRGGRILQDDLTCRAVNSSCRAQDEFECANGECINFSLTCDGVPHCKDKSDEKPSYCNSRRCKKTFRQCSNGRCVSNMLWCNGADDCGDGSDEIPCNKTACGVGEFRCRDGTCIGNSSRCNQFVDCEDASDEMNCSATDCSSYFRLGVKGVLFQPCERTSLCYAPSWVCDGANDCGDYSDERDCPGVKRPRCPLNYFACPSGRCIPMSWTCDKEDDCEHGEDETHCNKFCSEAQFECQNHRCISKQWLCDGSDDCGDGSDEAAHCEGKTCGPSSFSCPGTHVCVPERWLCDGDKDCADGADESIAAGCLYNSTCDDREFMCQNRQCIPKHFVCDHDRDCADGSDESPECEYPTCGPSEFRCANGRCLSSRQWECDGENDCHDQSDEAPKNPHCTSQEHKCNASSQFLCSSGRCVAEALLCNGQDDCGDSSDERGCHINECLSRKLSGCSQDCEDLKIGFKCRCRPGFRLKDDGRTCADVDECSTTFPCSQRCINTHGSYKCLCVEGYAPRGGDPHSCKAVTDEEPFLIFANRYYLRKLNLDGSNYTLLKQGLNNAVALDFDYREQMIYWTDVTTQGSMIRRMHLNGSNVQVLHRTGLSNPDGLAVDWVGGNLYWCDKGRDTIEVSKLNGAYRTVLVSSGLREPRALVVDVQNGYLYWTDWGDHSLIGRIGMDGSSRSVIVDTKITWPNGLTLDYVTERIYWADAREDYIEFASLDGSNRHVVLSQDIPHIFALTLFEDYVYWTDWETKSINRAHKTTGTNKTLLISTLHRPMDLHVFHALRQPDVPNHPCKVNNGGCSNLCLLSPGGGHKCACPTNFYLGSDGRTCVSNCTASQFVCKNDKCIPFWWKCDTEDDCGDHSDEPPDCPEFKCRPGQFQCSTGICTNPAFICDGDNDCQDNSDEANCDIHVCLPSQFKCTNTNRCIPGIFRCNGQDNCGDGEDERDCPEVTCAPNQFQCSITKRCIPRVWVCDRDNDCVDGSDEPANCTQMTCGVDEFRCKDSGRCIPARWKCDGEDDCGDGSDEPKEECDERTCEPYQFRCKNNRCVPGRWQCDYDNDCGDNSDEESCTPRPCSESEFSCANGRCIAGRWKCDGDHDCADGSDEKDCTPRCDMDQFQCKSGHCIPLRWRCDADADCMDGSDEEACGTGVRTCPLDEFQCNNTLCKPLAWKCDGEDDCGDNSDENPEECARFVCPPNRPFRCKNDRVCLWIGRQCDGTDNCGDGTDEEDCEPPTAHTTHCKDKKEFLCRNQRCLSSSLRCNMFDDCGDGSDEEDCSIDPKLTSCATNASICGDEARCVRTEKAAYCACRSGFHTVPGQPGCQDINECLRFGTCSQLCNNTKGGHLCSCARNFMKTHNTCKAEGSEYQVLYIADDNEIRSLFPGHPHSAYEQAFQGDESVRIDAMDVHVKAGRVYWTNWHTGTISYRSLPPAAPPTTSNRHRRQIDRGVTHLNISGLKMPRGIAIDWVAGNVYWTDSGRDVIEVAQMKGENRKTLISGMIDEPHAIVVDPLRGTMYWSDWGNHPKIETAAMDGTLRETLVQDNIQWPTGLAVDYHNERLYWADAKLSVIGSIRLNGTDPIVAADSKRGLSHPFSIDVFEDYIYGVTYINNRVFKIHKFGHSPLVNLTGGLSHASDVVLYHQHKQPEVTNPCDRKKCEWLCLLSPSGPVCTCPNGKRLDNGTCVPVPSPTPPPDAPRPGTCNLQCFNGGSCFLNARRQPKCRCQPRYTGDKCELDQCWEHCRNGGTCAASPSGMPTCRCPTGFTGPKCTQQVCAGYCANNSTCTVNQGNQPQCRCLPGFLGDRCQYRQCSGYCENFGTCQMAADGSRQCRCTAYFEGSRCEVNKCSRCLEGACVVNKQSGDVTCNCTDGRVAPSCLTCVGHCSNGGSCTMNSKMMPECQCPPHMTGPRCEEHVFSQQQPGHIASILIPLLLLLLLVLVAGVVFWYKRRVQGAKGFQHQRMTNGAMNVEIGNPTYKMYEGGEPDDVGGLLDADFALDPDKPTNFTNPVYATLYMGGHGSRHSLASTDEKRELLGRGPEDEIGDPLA

binding result: binds
B1: cSFB-tagged wild-type DLL3 (ligand, human, UniProt Q9NYJ7 27-618, looked up)
chain: AGVFELQIHSFGPGPGPGAPRSPCSARLPCRLFFRVCLKPGLSEEAAESPCALGAALSARGPVYTEQPGAPAPDLPLPDGLLQVPFRDAWPGTFSFIIETWREELGDQIGGPAWSLLARVAGRRRLAAGGPWARDIQRAGAWELRFSYRARCEPPAVGTACTRLCRPRSAPSRCGPGLRPCAPLEDECEAPLVCRAGCSPEHGFCEQPGECRCLEGWTGPLCTVPVSTSSCLSPRGPSSATTGCLVPGPGPCDGNPCANGGSCSETPRSFECTCPRGFYGLRCEVSGVTCADGPCFNGGLCVGGADPDSAYICHCPPGFQGSNCEKRVDRCSLQPCRNGGLCLDLGHALRCRCRAGFAGPRCEHDLDDCAGRACANGGTCVEGGGAHRCSCALGFGGRDCRERADPCAARPCAHGGRCYAHFSGLVCACAPGYMGARCEFPVHPDGASALPAAPPGLRPGDPQRYLLPPALGLLVAAGVAGAALLLVHVRRRGHSQDAGSRLLAGTPEPSVHALPDALNNLRTQEGSGDGPSSSVDWNRPEDVDPQGIYVISAPSIYAREVATPLFPPLHTGRAGQRQHLLFPYPSSILSVK
notes: Expressed in HEK293T cells, pulled down on S beads; also called cSFB-DLL3; C-terminal SFB-fused DLL3; not shown: C-terminal SFB triple tag (S protein tag-2xFLAG tag-SBP tag)

From patent US20240307489A1 (WESTLAKE UNIVERSITY, published 2024)
